From publication PMC7921410, “Structure of mammalian Mediator complex reveals Tail module architecture and interaction with a conserved core” (Nature Communications, 2021)

Legend:
Experiment in all cases: cryo-EM structure; endogenous mouse Mediator immunopurified from CH12 nuclear extract through 3×FLAG-MED19 or 3×FLAG-MED25; eluted in 50 mM HEPES pH 7.9, 100 mM KCl, 5% glycerol, 1 mM EDTA, 0.005% NP-40; map at 4.0 Å overall, focused refinement of the MED1 and knob/hook ends (6-10 Å)
Details in all cases: both partners purified
MED7 = target: T1, MED7 (mouse (Mus musculus; endogenous in CH12), UniProt Q9CZB6 1-233)
T1 construct: MED7, Mus musculus, endogenous Middle module subunit of Mediator; source: endogenous, CH12 mouse B lymphoma nuclear extract; immunopurified as part of Mediator (FLAG M2 agarose, FLAG peptide elution)
T1 sequence (looked up): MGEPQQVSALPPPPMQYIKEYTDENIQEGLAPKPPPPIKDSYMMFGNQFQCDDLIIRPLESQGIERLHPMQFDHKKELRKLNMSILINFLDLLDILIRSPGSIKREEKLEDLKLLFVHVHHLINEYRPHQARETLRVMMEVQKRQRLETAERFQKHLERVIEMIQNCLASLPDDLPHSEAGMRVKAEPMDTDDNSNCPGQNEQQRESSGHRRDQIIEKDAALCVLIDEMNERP

MED1 = target: T2, MED1 (mouse (Mus musculus; endogenous in CH12), UniProt Q925J9 1-1575)
T2 construct: MED1, Mus musculus, endogenous Middle module subunit of Mediator; only a partial model of the folded N-terminal portion was built; Partial model only; this part of the map is at about 6-8 Å; also called Mediator subunit MED1; source: endogenous, CH12 mouse B lymphoma nuclear extract; immunopurified as part of Mediator (FLAG M2 agarose, FLAG peptide elution)

MED4 = target: T3, MED4 (mouse (Mus musculus; endogenous in CH12), UniProt Q9CQA5 1-270)
T3 construct: MED4, Mus musculus, endogenous Middle module subunit of Mediator; source: endogenous, CH12 mouse B lymphoma nuclear extract; immunopurified as part of Mediator (FLAG M2 agarose, FLAG peptide elution)
T3 sequence (looked up): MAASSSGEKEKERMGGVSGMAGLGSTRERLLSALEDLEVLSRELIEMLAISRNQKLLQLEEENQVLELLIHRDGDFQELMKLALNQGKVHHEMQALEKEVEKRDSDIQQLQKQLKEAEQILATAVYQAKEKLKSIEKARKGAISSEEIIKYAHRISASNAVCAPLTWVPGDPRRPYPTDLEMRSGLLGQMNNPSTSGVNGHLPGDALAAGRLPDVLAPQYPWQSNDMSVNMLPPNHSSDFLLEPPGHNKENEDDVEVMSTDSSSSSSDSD

T2 sequence (Q925J9 whole entry): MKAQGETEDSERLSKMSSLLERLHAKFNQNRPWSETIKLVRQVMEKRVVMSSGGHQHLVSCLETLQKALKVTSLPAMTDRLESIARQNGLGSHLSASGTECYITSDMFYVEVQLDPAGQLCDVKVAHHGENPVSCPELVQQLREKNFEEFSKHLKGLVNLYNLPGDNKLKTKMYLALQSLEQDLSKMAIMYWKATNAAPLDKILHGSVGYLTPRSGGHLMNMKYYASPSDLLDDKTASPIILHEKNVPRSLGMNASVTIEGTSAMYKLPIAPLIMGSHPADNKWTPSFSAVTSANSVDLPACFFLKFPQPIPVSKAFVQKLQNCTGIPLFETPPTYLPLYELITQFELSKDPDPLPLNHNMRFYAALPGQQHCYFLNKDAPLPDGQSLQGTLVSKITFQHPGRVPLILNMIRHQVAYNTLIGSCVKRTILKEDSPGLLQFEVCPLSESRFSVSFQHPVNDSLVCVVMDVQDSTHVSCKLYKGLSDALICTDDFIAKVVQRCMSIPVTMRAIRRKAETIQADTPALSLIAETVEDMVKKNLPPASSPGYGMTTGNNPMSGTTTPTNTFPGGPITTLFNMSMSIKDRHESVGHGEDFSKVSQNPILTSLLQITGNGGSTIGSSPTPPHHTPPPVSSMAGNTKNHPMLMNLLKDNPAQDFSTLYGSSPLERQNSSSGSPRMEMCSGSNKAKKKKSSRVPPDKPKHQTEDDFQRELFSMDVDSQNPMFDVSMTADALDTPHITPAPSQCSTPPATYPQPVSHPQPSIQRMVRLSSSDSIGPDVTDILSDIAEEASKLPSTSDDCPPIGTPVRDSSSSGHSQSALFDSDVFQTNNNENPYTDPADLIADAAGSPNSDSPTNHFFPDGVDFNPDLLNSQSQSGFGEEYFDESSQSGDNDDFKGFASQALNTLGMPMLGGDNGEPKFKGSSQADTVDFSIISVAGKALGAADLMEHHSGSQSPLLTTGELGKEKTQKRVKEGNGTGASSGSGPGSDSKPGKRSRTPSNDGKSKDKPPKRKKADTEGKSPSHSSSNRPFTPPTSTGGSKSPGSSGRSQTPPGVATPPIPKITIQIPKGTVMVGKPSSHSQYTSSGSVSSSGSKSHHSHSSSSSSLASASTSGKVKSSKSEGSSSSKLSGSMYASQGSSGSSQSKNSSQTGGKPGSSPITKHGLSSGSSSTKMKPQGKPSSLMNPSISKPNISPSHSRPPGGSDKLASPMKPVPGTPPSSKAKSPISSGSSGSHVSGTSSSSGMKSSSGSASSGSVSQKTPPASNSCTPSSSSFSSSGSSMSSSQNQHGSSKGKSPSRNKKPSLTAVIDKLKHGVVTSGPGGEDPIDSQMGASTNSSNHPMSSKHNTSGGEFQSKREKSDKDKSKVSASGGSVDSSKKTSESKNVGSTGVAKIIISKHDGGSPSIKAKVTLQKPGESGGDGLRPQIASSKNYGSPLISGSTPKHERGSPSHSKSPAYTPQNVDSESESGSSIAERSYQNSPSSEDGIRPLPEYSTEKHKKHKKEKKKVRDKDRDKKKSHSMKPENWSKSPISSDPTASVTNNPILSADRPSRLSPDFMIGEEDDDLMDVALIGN

B1: MED21 (natural protein, mouse (Mus musculus; endogenous in CH12), UniProt Q9CQ39 1-144, looked up)
chain: MADRLTQLQDAVNSLADQFCNAIGVLQQCGPPASFSNIQTAINKDQPANPTEEYAQLFAALIARTAKDIDVLIDSLPSEESTAALQAASLYKLEEENHEAATCLEDVVYRGDMLLEKIQSALADIAQSQLKTRSVTHSHSLPDS
notes: MED21, Mus musculus, endogenous Middle module subunit of Mediator; source: endogenous, CH12 mouse B lymphoma nuclear extract; immunopurified as part of Mediator (FLAG M2 agarose, FLAG peptide elution)
MED7
  binding result: binds

B2: MED9 (natural protein, mouse (Mus musculus; endogenous in CH12), UniProt Q8VCS6 1-142, looked up)
chain: MASSGVAGGRQAEDTLQPPPELLPESKPPPPPQPLPVAALPPPAAPRPQSPAGAKEENYSFLPLVHNVIKCMDKDSPDLHQDLNALKTKFQELRKLIGTMPGIHVSPEQQQQQLHSLREQVRTKNELLQKYKSLCMFEIPKD
notes: MED9, Mus musculus, endogenous Middle module subunit of Mediator; source: endogenous, CH12 mouse B lymphoma nuclear extract; immunopurified as part of Mediator (FLAG M2 agarose, FLAG peptide elution)
MED1
  binding result: binds
MED4
  binding result: binds
